This assay concerns the target PP1c^1-293 (potato Protein Phosphatase 1-c isoform-3) (potato). Put plainly: ITC. (In general: In ITC the heat of successive injections is recorded.)

For orientation: Kd means a measure of binding affinity in units of concentration.

B1: Pi04314 WY-only (domain or fragment)
chain: DLLGLFAKSKLKKMMKSESFKLKRFGEWDDFTVGYIREKLKNKYPDLLLNYLNVYKKAGNEIVR
For the molecule B1, the Kd is 12.2 µM.

These data come from paper doi:10.1101/2023.07.24.550319.
